Experimental data published in the supplement of paper PMC10724198.
± gives the standard deviation of the averaged measurements.

System: Saccharomyces cerevisiae
Assay: protein stability index of tFT-peptide fusion (C-terminal peptide) (PSI (0-1 scale)); higher = more stable (slower turnover)
Details: genetic background: wild type; temperature: 30 C
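Further: PSI is a weighted mean of sequencing reads over stability bins, variants kept only with over 10 reads, mCherry proximal and sfGFP distal, peptide attached via GGGS linker.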

Compared with VLACVAQAACCR, VLAGTGGCASVW is higher in protein stability index: 0.556 ± 0.054 for the first, 0.739 ± 0.022 for the second.

First: VLAGVVGQARWW
Second: VLALLPLFFYFH
The protein stability index of the first is higher: 0.731 ± 0.015 for the first, 0.5041 ± 0.0041 for the second.

VLFCFAHSASFL and VLGCWEAPFVRC are within error of each other in protein stability index: 0.536 ± 0.066 for the first, 0.62 ± 0.1 for the second.

VLGGVWAWWVGF and VLGLLFLLCVFM are within error of each other in protein stability index: 0.663 ± 0.022 for the first, 0.6436 ± 0.0038 for the second.

VLGVTVRFRGIS and VLLRSTRRPLPC are within error of each other in protein stability index: 0.642 ± 0.057 for the first, 0.657 ± 0.036 for the second.

VLMVIPRAQVLL and VLPPTPLTPVLP are within error of each other in protein stability index: 0.697 ± 0.085 for the first, 0.676 ± 0.055 for the second.

Going from VLRARQGVREPP to VLRGSFPWLSPV, the protein stability index rises from 0.526 ± 0.01 to 0.7084 ± 0.0048.

VLSGFICTILIP and VLSLLVLLLSLP are within error of each other in protein stability index: 0.596 ± 0.038 for the first, 0.614 ± 0.017 for the second.

VLSSARKEVIIG and VLTGFTGSAIIG are within error of each other in protein stability index: 0.643 ± 0.03 for the first, 0.682 ± 0.03 for the second.

VLTVVRVGVGKQ and VLVLVARPLWRI are within error of each other in protein stability index: 0.676 ± 0.051 for the first, 0.646 ± 0.0094 for the second.

First: VLVRRVFRRRSR
Second: VLVRYSAGTGGT
The protein stability index of the first is higher: 0.786 ± 0.11 for the first, 0.605 ± 0.013 for the second.

Compared with VMKILQVGDVYN, VMLSYCHNLTKI is lower in protein stability index: 0.752 ± 0.021 for the first, 0.646 ± 0.074 for the second.

First: VMLWAGLFGSSV
Second: VMTRVIYRGVGR
The protein stability index of the first is lower: 0.634 ± 0.018 for the first, 0.6643 ± 0.00051 for the second.

First: VNKRRCIGERDG
Second: VNMMYEIWPLGN
The protein stability index of the first is higher: 0.6949 ± 0.0029 for the first, 0.624 ± 0.038 for the second.

VNRYSKETDAVF and VNYRVWRKRGGR are within error of each other in protein stability index: 0.6719 ± 0.0043 for the first, 0.644 ± 0.057 for the second.

Compared with VPEMFSSGIKGG, VPLPLHLPPPLP is higher in protein stability index: 0.653 ± 0.072 for the first, 0.863 ± 0.12 for the second.

Compared with VPMVFSIYFGVS, VPPPLASPPVTP is higher in protein stability index: 0.563 ± 0.012 for the first, 0.698 ± 0.055 for the second.

VPPPVCAVPPPL and VPPSKQRSRIKD are within error of each other in protein stability index: 0.684 ± 0.036 for the first, 0.675 ± 0.028 for the second.

First: VPRGPRFHIILS
Second: VPRLPPSPPPLP
The protein stability index of the first is lower: 0.594 ± 0.035 for the first, 0.779 ± 0.076 for the second.

First: VPSCWVSFPPSP
Second: VPSPPCPPHLPI
The protein stability index of the first is higher: 0.732 ± 0.04 for the first, 0.655 ± 0.012 for the second.

First: VPVALWEAPAVH
Second: VPVIGRSCPFLP
The protein stability index of the first is lower: 0.601 ± 0.013 for the first, 0.6581 ± 0.0013 for the second.

Going from VPYFRSMSSLSI to VQKITRLVDKVV, the protein stability index rises from 0.6347 ± 0.0039 to 0.813 ± 0.065.

VQNPVTTPQEQF and VQTYVRARVDRL are within error of each other in protein stability index: 0.684 ± 0.043 for the first, 0.711 ± 0.024 for the second.

VRAGFRAWGVSE and VRAHARPTKGKP are within error of each other in protein stability index: 0.572 ± 0.2 for the first, 0.682 ± 0.059 for the second.

Compared with VRATNLSSVGIF, VREFRRAVFVGS is lower in protein stability index: 0.619 ± 0.011 for the first, 0.544 ± 0.02 for the second.

First: VREGTKDGGSRV
Second: VRESLGANACSR
The protein stability index of the first is lower: 0.544 ± 0.042 for the first, 0.69 ± 0.058 for the second.

VRFARSGPAHVC and VRFKDFDDLGSL are within error of each other in protein stability index: 0.6607 ± 0.003 for the first, 0.704 ± 0.067 for the second.

VRGRGRSWRRVK and VRGRLGGGVGRA are within error of each other in protein stability index: 0.758 ± 0.18 for the first, 0.686 ± 0.079 for the second.

VRGVGGLWGGAV and VRHGERGGGLGD are within error of each other in protein stability index: 0.785 ± 0.17 for the first, 0.782 ± 0.06 for the second.

VRHSCRTTTPPS and VRNKGVAKDHCP are within error of each other in protein stability index: 0.708 ± 0.009 for the first, 0.661 ± 0.064 for the second.

VRNPLRSFSGDA and VRNVVYWEFVVE are within error of each other in protein stability index: 0.64 ± 0.049 for the first, 0.585 ± 0.063 for the second.

Going from VRPPPPPRSSPL to VRPQLGNHRILV, the protein stability index falls from 0.742 ± 0.055 to 0.609 ± 0.0067.

VRQGERGGGLGD and VRRARATLYSWL are within error of each other in protein stability index: 0.747 ± 0.038 for the first, 0.693 ± 0.052 for the second.

VRRETGPPRAPT and VRRVVDESKTRD are within error of each other in protein stability index: 0.6717 ± 0.0019 for the first, 0.659 ± 0.038 for the second.

Going from VRSGKGKNRWNK to VRSLFSFRLRGS, the protein stability index falls from 0.719 ± 0.024 to 0.633 ± 0.056.

VRVCGPSCFRPG and VRWLLTSHARLT are within error of each other in protein stability index: 0.628 ± 0.05 for the first, 0.484 ± 0.12 for the second.

VRWSRMGCNWGG and VSAPTHVSRVTQ are within error of each other in protein stability index: 0.585 ± 0.093 for the first, 0.649 ± 0.0088 for the second.

First: VSARWSTSLCLS
Second: VSDGGCIFHRRT
The protein stability index of the first is lower: 0.533 ± 0.015 for the first, 0.704 ± 0.055 for the second.

VSEGFVLGGSCG and VSGPTPAPLSSL are within error of each other in protein stability index: 0.663 ± 0.0074 for the first, 0.695 ± 0.028 for the second.

VSGSSAIFLLWC and VSHKETNKIKPN are within error of each other in protein stability index: 0.706 ± 0.1 for the first, 0.701 ± 0.097 for the second.

In the case of VSIAYARHGDSV, the protein stability index is reported as 0.693 ± 0.028.
